The test deals with Clostridium difficile toxin B (Clostridium difficile) (UniProt P18177). Nature of the test: cell-based or functional assay.
Clostridium difficile toxin B (Clostridium difficile), sequence (P18177 2-2366 limits assumed): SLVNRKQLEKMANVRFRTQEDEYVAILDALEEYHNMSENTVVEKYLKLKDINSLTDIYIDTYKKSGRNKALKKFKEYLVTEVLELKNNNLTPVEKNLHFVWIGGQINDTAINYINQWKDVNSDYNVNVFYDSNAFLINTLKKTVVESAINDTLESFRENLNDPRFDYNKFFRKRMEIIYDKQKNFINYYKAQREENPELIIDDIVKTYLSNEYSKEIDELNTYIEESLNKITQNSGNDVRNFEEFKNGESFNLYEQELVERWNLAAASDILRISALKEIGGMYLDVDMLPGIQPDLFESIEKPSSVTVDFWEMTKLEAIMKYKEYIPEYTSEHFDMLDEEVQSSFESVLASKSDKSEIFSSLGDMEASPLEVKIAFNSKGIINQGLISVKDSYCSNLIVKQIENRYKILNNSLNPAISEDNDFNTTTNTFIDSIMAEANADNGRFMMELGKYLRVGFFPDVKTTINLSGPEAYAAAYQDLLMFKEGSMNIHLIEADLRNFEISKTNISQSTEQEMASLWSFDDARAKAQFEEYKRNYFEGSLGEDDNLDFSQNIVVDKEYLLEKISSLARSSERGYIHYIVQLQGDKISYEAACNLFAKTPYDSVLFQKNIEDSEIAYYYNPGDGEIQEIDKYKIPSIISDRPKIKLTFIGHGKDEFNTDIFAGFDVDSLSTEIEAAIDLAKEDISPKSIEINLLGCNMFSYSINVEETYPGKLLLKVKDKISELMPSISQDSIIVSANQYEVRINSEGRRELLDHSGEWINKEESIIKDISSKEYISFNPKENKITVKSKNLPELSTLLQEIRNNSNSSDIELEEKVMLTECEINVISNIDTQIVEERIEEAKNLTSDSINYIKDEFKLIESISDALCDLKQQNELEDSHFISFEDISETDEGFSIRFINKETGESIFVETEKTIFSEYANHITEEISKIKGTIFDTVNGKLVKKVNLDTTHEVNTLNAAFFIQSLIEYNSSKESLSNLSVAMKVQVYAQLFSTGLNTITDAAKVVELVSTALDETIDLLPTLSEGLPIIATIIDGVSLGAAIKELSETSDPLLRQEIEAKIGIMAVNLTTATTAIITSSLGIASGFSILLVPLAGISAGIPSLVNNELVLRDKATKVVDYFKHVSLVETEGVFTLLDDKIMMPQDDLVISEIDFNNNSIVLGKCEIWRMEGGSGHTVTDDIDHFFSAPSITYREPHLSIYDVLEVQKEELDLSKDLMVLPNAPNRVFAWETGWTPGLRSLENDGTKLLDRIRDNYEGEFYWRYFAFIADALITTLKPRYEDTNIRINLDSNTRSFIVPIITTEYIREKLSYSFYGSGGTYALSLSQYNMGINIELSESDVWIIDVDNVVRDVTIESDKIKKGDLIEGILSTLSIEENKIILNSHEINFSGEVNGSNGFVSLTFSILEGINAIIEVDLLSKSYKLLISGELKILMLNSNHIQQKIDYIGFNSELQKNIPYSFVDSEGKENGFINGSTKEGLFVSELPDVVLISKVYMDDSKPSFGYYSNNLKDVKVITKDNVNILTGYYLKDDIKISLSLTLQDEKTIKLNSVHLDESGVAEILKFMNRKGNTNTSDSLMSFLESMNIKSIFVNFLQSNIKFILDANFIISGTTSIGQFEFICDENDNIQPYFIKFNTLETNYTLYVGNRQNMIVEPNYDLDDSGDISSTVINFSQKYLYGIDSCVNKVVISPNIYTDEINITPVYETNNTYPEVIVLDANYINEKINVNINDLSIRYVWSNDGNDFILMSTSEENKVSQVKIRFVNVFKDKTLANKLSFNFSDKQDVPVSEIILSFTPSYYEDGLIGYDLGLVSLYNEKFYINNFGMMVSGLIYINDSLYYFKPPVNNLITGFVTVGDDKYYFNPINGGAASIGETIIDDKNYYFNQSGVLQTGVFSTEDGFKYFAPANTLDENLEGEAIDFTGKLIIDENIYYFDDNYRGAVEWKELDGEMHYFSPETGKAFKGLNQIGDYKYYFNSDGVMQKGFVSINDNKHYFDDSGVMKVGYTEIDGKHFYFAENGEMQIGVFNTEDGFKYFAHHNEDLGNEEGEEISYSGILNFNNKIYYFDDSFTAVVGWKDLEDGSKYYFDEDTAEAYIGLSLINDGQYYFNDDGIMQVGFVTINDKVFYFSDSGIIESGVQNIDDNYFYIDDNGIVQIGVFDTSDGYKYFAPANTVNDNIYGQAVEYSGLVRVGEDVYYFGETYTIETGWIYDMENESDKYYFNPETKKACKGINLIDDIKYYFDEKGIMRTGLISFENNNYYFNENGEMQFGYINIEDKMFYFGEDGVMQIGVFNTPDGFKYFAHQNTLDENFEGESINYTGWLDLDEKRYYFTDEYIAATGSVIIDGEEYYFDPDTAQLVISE

Turning to MDX1388 (antibody), the neutralizing activity (EC50 value), rounding of toxin B-exposed IMR-90 cells was under 0.1 µg/mL.
